Consider five molecules from patent US8026218 (UNIVERSITY OF ARIZONA, dated 2011).

Where two headings read alike, the source gives them in different places. Bridge positions count the residues as written; N and C are the ends. Square brackets hold non-standard residues; d marks the D form. Ends that are not written are not given here. * marks the point of attachment. Glc = O-glucosyl on Ser side chain (Ser(OGlu)/Ser(OGlc)); NH(3,5-(CF3)2-benzyl) = FC(F)(F)c1cc(CN*)cc(C(F)(F)F)c1; NH‑Bn(CF3)2 = C-terminal Bn(CF3)2 amide; Dmt = Cc1cc(O)cc(C)c1C[C@H](N)C(=O)O; Nle = CCCC[C@H](N)C(=O)O; NHBn = c1ccc(CN*)cc1

Test [1] has as its target T1, rat µ opioid receptor (rat, UniProt P33535 1-398). The test can be described thus: cell-based or functional assay.
For test [2], the target named is T2, human δ opioid receptor (human, UniProt P41143 1-372). The test can be described thus: cell-based or functional assay.
T2 sequence (P41143 whole entry, stated change not applied): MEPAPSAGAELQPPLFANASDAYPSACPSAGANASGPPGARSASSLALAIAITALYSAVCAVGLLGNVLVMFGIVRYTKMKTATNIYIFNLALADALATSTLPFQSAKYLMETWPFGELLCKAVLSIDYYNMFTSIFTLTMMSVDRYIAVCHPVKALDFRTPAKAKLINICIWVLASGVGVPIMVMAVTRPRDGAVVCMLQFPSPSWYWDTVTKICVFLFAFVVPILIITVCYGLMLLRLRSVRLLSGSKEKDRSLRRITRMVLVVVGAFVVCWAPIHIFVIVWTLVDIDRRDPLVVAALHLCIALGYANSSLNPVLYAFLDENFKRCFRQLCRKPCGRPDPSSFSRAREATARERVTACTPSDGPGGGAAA
The target of test [3] is T2, human δ opioid receptor. The test is described as follows: competition vs [3H]DPDPE, hDOR cell membranes.
For test [4], the target named is T1, rat µ opioid receptor. The test is described as follows: ratio of the Ki at rMOR to the Ki at hDOR.
Test [5] addresses T3, guinea pig NK1 receptor (guinea pig, UniProt P30547 1-407). The test is described as follows: cell-based or functional assay.
T3 sequence (P30547 whole entry): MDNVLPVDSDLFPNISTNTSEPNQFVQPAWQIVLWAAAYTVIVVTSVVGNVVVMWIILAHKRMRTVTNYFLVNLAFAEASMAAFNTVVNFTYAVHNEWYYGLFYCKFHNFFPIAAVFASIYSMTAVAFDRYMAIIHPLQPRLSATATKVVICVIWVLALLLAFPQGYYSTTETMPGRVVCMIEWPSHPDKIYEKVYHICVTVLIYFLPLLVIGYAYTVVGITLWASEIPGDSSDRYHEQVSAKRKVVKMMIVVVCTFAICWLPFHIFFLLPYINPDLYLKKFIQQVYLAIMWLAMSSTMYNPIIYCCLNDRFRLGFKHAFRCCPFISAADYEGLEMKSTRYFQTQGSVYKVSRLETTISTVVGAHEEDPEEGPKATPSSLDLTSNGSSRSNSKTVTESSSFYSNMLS
The target in test [6] is T4, rat NK1 receptor (rat, UniProt P14600 1-407).
T4 construct: whole, on cells; membrane preparations of the transfected cells were used; also called rNK1; rNK-1
The test is described as follows: competition vs [3H]Substance P, rNK1 CHO cell membranes.
T4 sequence (P14600 whole entry): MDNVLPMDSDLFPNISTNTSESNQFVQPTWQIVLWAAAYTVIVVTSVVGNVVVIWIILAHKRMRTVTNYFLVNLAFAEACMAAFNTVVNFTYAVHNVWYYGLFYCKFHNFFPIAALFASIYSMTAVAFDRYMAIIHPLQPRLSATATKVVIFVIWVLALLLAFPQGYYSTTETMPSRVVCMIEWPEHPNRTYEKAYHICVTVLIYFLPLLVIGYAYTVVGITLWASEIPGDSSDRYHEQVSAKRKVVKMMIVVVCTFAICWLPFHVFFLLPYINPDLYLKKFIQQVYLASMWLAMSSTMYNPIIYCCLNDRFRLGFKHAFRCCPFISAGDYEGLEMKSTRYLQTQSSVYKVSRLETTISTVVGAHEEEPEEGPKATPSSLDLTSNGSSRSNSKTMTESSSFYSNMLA

The target in test [7] is T1, rat µ opioid receptor. The test is described as follows: competition vs [3H]DAMGO, rMOR cell membranes.
Test [8] concerns the target T5, human NK1 receptor (human, UniProt P25103 1-407).
T5 construct: whole, on cells; membrane preparations of the transfected cells were used; also called hNK1; human neurokinin-1 receptor
The test can be described thus: competition vs [3H]Substance P, hNK1 CHO cell membranes.
T5 sequence (P25103 whole entry): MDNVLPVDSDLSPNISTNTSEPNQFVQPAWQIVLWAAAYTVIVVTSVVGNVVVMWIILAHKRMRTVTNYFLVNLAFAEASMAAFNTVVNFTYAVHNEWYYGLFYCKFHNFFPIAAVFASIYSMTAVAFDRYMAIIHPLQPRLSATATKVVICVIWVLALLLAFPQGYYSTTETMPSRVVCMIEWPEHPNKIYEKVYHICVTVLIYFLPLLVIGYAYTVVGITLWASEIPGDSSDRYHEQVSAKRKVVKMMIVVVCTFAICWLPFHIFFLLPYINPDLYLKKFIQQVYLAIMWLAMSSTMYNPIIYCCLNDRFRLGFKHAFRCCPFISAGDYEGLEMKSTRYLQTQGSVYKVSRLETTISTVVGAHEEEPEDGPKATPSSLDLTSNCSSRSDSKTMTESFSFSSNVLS

The target in test [9] is T1, rat µ opioid receptor. The test is described as follows: competition vs [3H]DAMGO, rMOR cell membranes. This is another data set of the same source.
Test [10] addresses µ opioid receptor of the guinea pig isolated ileum (guinea pig, UniProt P97266 1-98). The test is described as follows: cell-based or functional assay.
Target sequence in this assay (P97266 whole entry): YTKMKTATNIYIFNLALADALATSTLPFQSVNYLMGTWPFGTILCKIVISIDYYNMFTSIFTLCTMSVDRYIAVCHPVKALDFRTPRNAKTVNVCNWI
The target in test [11] is T3, guinea pig NK1 receptor. The test can be described thus: cell-based or functional assay. The source holds these as a separate data set.
Test [12] has as its target T5, human NK1 receptor. The test is described as follows: competition vs [3H]Substance P, hNK1 CHO cell membranes. The source holds these as a separate data set.
Test [13] has as its target T4, rat NK1 receptor. The test is described as follows: competition vs [3H]Substance P, rNK1 CHO cell membranes. This is another data set of the same source.
In test [14] the target is T2, human δ opioid receptor. The test can be described thus: competition vs [3H]DPDPE, hDOR cell membranes. The source holds these as a separate data set.
Test [15] deals with T4, rat NK1 receptor. The test can be described thus: competition vs [3H]Substance P, rNK1 CHO cell membranes. The source holds these as a separate data set.
Test [16] concerns the target T5, human NK1 receptor. The test can be described thus: competition vs [3H]Substance P, hNK1 CHO cell membranes. This is another data set of the same source.
Test [17] deals with T6, rat NK1 receptor (rat, UniProt P14600 1-407).
T6 construct: whole, on cells; Used as membrane preparations of transfected CHO cells; also called rNK1; rat neurokinin-1 receptor
The test is described as follows: radioligand competition vs [3H]substance P, membranes of rNK1 CHO cells.
T6 sequence (P14600 whole entry): as the sequence (P14600 whole entry) above

For test [18], the target named is guinea pig NK1 receptor (guinea pig, UniProt P30547 1-407). The test can be described thus: cell-based or functional assay. The source holds these as a separate data set.
Target sequence in this assay (P30547 whole entry): as the sequence (P30547 whole entry) above
For test [19], the target named is µ opioid receptor of the guinea pig isolated ileum (guinea pig, UniProt P97266 1-98). The test is described as follows: cell-based or functional assay. The source holds these as a separate data set.
Target sequence in this assay (P97266 whole entry): as the sequence (P97266 whole entry) above
The target in test [20] is T7, human NK1 receptor (human, UniProt P25103 1-407).
T7 construct: whole, on cells; Used as membrane preparations of transfected CHO cells; also called hNK1; human neurokinin-1 receptor
The test is described as follows: radioligand competition vs [3H]substance P, membranes of hNK1 CHO cells. In general terms: In a radioligand displacement assay an active substance lowers the binding of a labelled ligand.
T7 sequence (P25103 whole entry): as the sequence (P25103 whole entry) above

Test [21] has as its target T1, rat µ opioid receptor. The test can be described thus: competition vs [3H]DAMGO, rMOR cell membranes. The source holds these as a separate data set.
Test [22] addresses T1, rat µ opioid receptor. The test can be described thus: cell-based or functional assay. The source holds these as a separate data set.
Test [23] has as its target T5, human NK1 receptor. The test can be described thus: competition vs [3H]Substance P, hNK1 CHO cell membranes. This is another data set of the same source.

T1 sequence (P33535 whole entry): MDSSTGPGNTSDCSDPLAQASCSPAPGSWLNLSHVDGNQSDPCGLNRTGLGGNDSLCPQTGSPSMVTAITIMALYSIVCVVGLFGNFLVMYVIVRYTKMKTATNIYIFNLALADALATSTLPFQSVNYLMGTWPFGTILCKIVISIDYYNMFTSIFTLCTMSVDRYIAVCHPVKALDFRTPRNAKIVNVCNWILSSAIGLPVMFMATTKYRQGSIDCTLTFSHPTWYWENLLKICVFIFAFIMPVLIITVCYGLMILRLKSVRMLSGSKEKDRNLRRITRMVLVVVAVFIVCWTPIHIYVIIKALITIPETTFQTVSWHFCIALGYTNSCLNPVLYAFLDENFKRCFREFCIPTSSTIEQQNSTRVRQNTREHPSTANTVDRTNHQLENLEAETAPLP

B1: Tyr[DCysGlyPheNleProDCys]TrpNHBn(CF3)2 (peptide)
peptide: Y[dC]GF[Nle]P[dC]W-{NH(3,5-(CF3)2-benzyl)}
modifications: disulfide 2-7
notes: cyclic; also called TY038; [D-Cys2, D-Cys7]TY027
With B1, the “[35S]GTPγS binding EC50” value with rat µ opioid receptor [1] worked out at 22 nM; with human δ opioid receptor [2], 51 nM. The results for the “[35S]GTPγS binding Emax” value in the test with rat µ opioid receptor [1] and with human δ opioid receptor [2] were 12% and 87%, respectively. In addition, the “[35S]GTPγS binding LogEC50” value with rat µ opioid receptor [1] was -7.7; with human δ opioid receptor [2], -7.3. Moreover, the Ki with human δ opioid receptor [3] stood at 56 nM; with rat NK1 receptor [6] it was 7.1 nM; with rat µ opioid receptor [7] it was 160 nM; in the test with human NK1 receptor [8] it was 0.25 nM. Also, the LogIC50 with human δ opioid receptor [3] was -6.9; with rat NK1 receptor [6], -7.7; in the test with rat µ opioid receptor [7], -8.8; with human NK1 receptor [8] it was -9.3. In the test with rat µ opioid receptor [4], the “Ki(µ)/Ki(δ)” value is 2.9. In addition, the “GPI Substance P antagonist Ke” value with guinea pig NK1 receptor [5] was 12 nM.

B2: DmtDAlaGlyPheMetProLeuTrpNHBn (peptide)
peptide: [Dmt][dA]GFMPLW-NHBn
notes: also called TY034
On to B2, for which the Ki with rat µ opioid receptor [9] was 0.14 nM; with human NK1 receptor [12], 2.4 nM; in the test with rat NK1 receptor [13] it was 317 nM; in the test with human δ opioid receptor [14] it was 0.1 nM. Further, the “GPI/LMMP IC50” value in test [10] worked out at 11.4 nM. Also, in the test with guinea pig NK1 receptor [11], the “GPI/LMMP Substance P antagonist Ke” value worked out at 36.9 nM.

B3: Tyr[DPenGlyPheDPen]ProLeuTrpNHBn(CF3)2 (peptide)
peptide: YXGFXPLW
modifications: D-Pen at 2 and 5 (written X); disulfide 2-5; C-terminal NH-3,5-Bzl(CF3)2 amide
notes: cyclic; also called TY049
Turning to B3, the Ki turned out to be 4.54 nM in the test with rat NK1 receptor [15] and 0.18 nM with human NK1 receptor [16].

B4: TyrDAlaGlyPheNleProLeuSer(OGlu)TrpNHBn(CF3)2 (TY055) (peptide)
peptide: Y[dA]GF[Nle]PLS(Glc)W-{NH‑Bn(CF3)2}
In the case of B4, the inhibitory constant (Ki) was 33.9 nM in the test with rat NK1 receptor [17] and 0.052 nM with human NK1 receptor [20]. The “GPI/LMMP SP antagonist Ke” value with guinea pig NK1 receptor [18] worked out at 8.4 nM. Moreover, the “GPI/LMMP opioid(mu) agonist IC50” value in test [19] came to 670 nM.

B5: DmtDAlaGlyPheNleProSer(OGlu)TrpNHBn(CF3)2 (peptide)
peptide: [Dmt][dA]GF[Nle]PS(Glc)W-{NH(3,5-(CF3)2-benzyl)}
notes: also called TY056
On to B5, for which the Ki in the test with rat µ opioid receptor [21] turned out to be 1.9 nM; with human NK1 receptor [23], 1.7 pM. The “GTP binding EC50” value with rat µ opioid receptor [22] came out at 44.9 nM. Besides, the “GTP binding Emax” value in the test with rat µ opioid receptor [22] was determined as 66%.

The Ki is the equilibrium dissociation constant of an inhibitor or competing ligand from its target. Read a low Ki as tighter binding.
